Measured values taken from the DeepSol protein solubility set.

Experiment: soluble on expression in E. coli; label from the status in PepcDB or PDB records

Question: For “MADVLERVTKIIVDRLGVEETEVVPAASFKEDLGADSLDVVELVMQLEDEFEMEISDEDAEKIATVGDAVTYIESHL”, which “soluble on expression in E. coli” value is on record?
Answer: not soluble

Question: Which “soluble on expression in E. coli” value does the source give for “MADYADAVVTQESALTTSPGETVTLTCRSSTGAVTTSNYASWVQEKPDHLFTGLIGGTNNRAPGVPARFSGSLIGDKAALTITGAQTEDEAIYFCALWYSNHWVFGGGTKLTVLGGGGGSGGGGSGGGGSGGGGS” here?
Answer: soluble

Question: For “MAEASPQPGRYFCHCCSVEIVPRLPDYICPRCESGFIEELPEETRNTENGSAPSTAPTDQNRQPFENVDQHLFTLPQGYSQFAFGIFDDSFEIPTFPPGAQADDGRDPESRREREHQSRHRYGARQPRARLTARRATGRHEGVPTLEGIIQQLVNGIISPAAVPSLGLGPWGVLHSNPMDYAWGANGLDTIITQLLNQFENTGPPPADKEKIQALPTVPVTEEHVGSGLECPVCKEDYALGESVRQLPCNHLFHDSCIVPWLEQHDSCPVCRKSLTGQNTATNPPGLTGVGFSSSSSSSSSSSPSNENATSNS”, which “soluble on expression in E. coli” value is on record?
Answer: soluble

Question: With “MAEAYLEYLGKHDVLTKLHNRAFYSDELNRLERSALRPVSAIVIDLNGLKEANDKLGHDAGDALLRRVGEVLNGVVTAPNHAARIGGDEFAILLPGADKQVAAAMVDTVYELLKINNQFYSSAPLSLSLGVATTEAGETMESLVRRADMNMYEQKNAYYAALRNRSADNNDTTKGLEHHHHHH” as the sequence, how does the “soluble on expression in E. coli” value read?
Answer: soluble

Question: With “MAEEPKGVPLSELSLQQLGELQKNCEQELNFFQESFNALKGLLTRNEKSISALDDVKIATAGHTALIPLSESLYIRAELSDPSKHLVEIGTGYFVELDREKAKAIFDRKKEHITKQVETVEGILKEKRRTRAYISDAFQTKVQSQLATMNTQ” as the sequence, how does the “soluble on expression in E. coli” value read?
Answer: not soluble

Question: With “MAEHPIQGLMETAMESIKEMVDVNTIVGDAVQAPDGTVIIPISKVTFGFAAGGGEFASCCSVDEKGEDSSDDSSKPEIKFPFAGGSGAGVSINPVAFMVVGQGQIKLLPVNINSSLEKILDLIPEIIEKTKDSVKKNLKVKKEIKPGNGESCAKSSKEDENELEHHHHHH” as the sequence, how does the “soluble on expression in E. coli” value read?
Answer: soluble

Question: With “MAEKTRYSDAELEEFRAIIMEKLELAQRDYDQLKMSLMGLDGNDTDDTSPTYKVLEEGANTLSKEETTRLAQRQLKFIQGLQAALVRIENKTYGICRETGKLIPAERLRAVPHATLSIEAKNSGKK” as the sequence, how does the “soluble on expression in E. coli” value read?
Answer: not soluble

Question: Which “soluble on expression in E. coli” value does the source give for “MAELYDGPIVDAHHHFWDPQANYHPWLAEDAKIPFRYGDYSAIKRRYLPADYFGDVGAHRVVETVYVETEWDPRDPLGETRFVHHLAERHGAPHAVVAQAWLDAPDAAEVLAAQAGFARVRSVRHKPGGPQRPQQVGELRSLMSDERWRRGYAELARHGLHFDLQTPWWNLAEAACLARDFPDTLIVLNHAGLPSDRSEEGLAAWQRAMARFAECPNVALKISGIGQAGRRWSVEDNAWIVRESIALFGVERAMFASNFPVDSLCGSFDDIYGGFKRIVADLPYADQERLFHSNARRIYRTVPDTVRLQQASPDPRTSP” here?
Answer: not soluble

Question: With “MAELYVKPGNKERGWNDPPQFSYGLQTQTGGPKRTPLTKRVAAPQDGSPRAPETSGPPPVDHPPPSSKASRPPPMGSCPATGVEPPSSPVIESETLIEDVLRPLEQALEDCHGHTKKQVCDDISRRLVLLREQWAGGKLSIPVKKRMALLVQELLHHQWDAADDIHRSLMVDYVTEVSQWMVGVKRLIAEKRSLSSEETKEEKFTVEPENQTIPGFQQPS” as the sequence, how does the “soluble on expression in E. coli” value read?
Answer: not soluble

Question: For “MAENKLGRDIPRKYANQYGVFEGELAHIKSYKESSRQVKPVKPSDDKLLSSIHEAIEKTRLKDGMTISFHHHFREGDYVMNMVLDEIAKMGIKDISIAPSSIANVHEPLIDHIKNGVVTNITSSGLRDKVGAAISEGIMENPVIIRSHGGRARAIATDDIHIDVAFLGAPSSDAYGNANGTRGKTTCGSLGYAMIDAKYADQVVIVTDTLVPYPNTPISIPQTDVDYIVVVDAIGDPEGIAKGATRYTKNPKELLIAEYAAKVITSSPYYKEGFSFQTGTGGASLAVTRFMREQMIKDDIKANFALGGITNAMVELLEEGLVDKILDVQDFDHPSAVSLDRNAEKHYEIDANMYASPLSKGSVINQLDICVLSALEVDTNFNVNVMTGSDGVIRGASGGHCDTAFAAKMSLVISPLVRGRIPTFVDKVNTVITPGTSVDVVVTEVGIAINPNRPDLIEYFKDLKVPQLTIEELKEKAYAIVGNPQPIQYGDKIVALIEYRDGSLIDVVRNVLEHHHHHH”, which “soluble on expression in E. coli” value is on record?
Answer: soluble

Question: Which “soluble on expression in E. coli” value does the source give for “MAEPKWPSSAKTLPFKFMKEARNPCTRAQKLCSTHRRAAAPPSFSVHLTQKSENSSSEESDHQFASPTSPRPSSSDSFGPSAAPSTSLSPPFLSPSYSMDYIIEAMTSSSSTSPVPPPVSASRPVAPVVARVEGLRAVPVGHRRQHSSPGHLQQFQQELHARHHHANITRLNKKRRNTDTGYDPEARPPKFKHRSPLDEETILVSKTFAIPKYRKGALPAAAAAVVRNEALMDSSDSSDSQSTVKSLDGWRTRTSRSIMTTPEAFSRVRHISITFGEQQHDIDTDHSNQHFGSPSSLHSSLPRAFSPPHKISKARRRQLAVTTSLSETSAFPIPSSLKARSRMSSMSSTQADDEHPISMQNMRNIALGILVPIKQRFFLMQHIPLIEAEMSRFESRVVTAALHPSTFLQNISKSWEELTETVCQLHNAPRLRHPYWLALNEKCHLDGRTLATEFCEQLAYLVRRYDRKEAGYFLSNLVTALLMHHMSWVASVASPPLHNADSKDQIDENSLFGMMSSGAPTVGYNALMAQYLEISGACGNMRSAKICVVGEDLEVLASVCSVLSFFIRCSAVQHVDNDKMWEVPTEQPFSPCDVSNSPSTSCAHQHQQQQQLKNGYQHPEETSSVAMMRRLRNNNQMDTSSTPSTSTAAALLDADVEMVVQTTTEITSTTTTTPRHHHLHHLHSVTIDRLDFPCCPTIADDADMWVPQRPNSEGLGRSMFAGPLNNYCSHFVLSAVQKTDTNMPEVYSRMFDEVRCTDFPCHRSATATPSQSTSSMCDPAMNPENVLIIADIEQLTVKVLSTEGSDEVTSPSESIVAMLEQFVGIHNAVPANAEFLVGIIEDSLAHIVGKSLTLVELVRSDQTVRIQGSERAKKSKILAKIEILLAVCPEIGNFSKFEFPSYRALK” here?
Answer: not soluble

Question: With “MAEPLLVVGLGNPGANYARTRHNLGFVVADLLAARLGAKFKAHKRSGAEVATGRSAGRSLVLAKPRCYMNESGRQIGPLAKFYSVAPANIIVIHDDLDLEFGRIRLKIGGGEGGHNGLRSVVAALGTKDFQRVRIGIGRPPGRKDPAAFVLENFTPAERAEVPTICEQAADATELLIEQGMEPAQNRVHAWKLAAALEHHHHHH” as the sequence, how does the “soluble on expression in E. coli” value read?
Answer: soluble

Question: With “MAEREQSNDSARTDVPAIVSLRTRELDTGEGRMQWASTLERLYCETDVAWPEPRRHFDAEWGGRPFGDLHVSTIRADAHTVVRSPAMIQSDSGEGYLVCLVTDGSVEVRQSGRATVVEPGSFALLDCAAPFVFHSPAPFRQVVVRSPREVLTSRLPGRIVEHGTARSIHGDTGAGGLVGRLFVDIADMDAPMSQGAAVSFASSAVDMLATALTEGLLATSAADLHRTEDLRRVQRVIEQNLHDADITLSDIAAAAGMSLRTVHKLFNAEGTTTRAWLYQARLEAARKYLLTTDLSVADVSECAGFRDVSHFSRLFRSTFGSSPGLYRKEHARRVS” as the sequence, how does the “soluble on expression in E. coli” value read?
Answer: not soluble

Question: Which “soluble on expression in E. coli” value does the source give for “MAERETYADFSVVEKQRNFLTAEEFPEGPYGSPRRDDAPVENKSTPWKEGQRHYSAFNYEFKSFHQNIPRRDPAAHPPHDDPHQSEQFPYNEGE” here?
Answer: not soluble

Question: For “MAESDWDTVTVLRKKGPTAAQAKSKQAILAAQRRGEDVETSKKWAAGQNKQHSITKNTAKLDRETEELHHDRVTLEVGKVIQQGRQSKGLTQKDLATKINEKPQVIADYESGRAIPNNQVLGKIERAIGLKLRGKDIGKPIEKGPRAK”, which “soluble on expression in E. coli” value is on record?
Answer: not soluble

Question: With “MAEVKGMTVFNTEEVNTKKQPMFFGKPLGVQRYDNFKYPSFENLTKQQLGYFWRPEEVSLQKDRGDYQTLRPEQKHIYTSNLKYQIMLDSVQGRAPGMAFLPYCSLPELEACMEVWSFMEMIHSRSYTYVIKNVYADPSEVFDKILSDDRILSRAASVTESYDDFINEAQGWGQSNLWRDMDKSLDTSLPVLEMKEVKRKLYRAVTNVNILEGIRFYVSFACSFAFGELKVMEGSAKIISLIARDENQHLAITQNILNNWRKGDDPEMVEIMKEEEQWTYQMFEKCVNEEKMWAEYLFKDGSMIGLNDKLLHQYVEWVANRRMRSIGMKPVYDIAAKNNPLPWTEHWISSKGLQVAPQETEVESYIVGGIKQDVKKDTFAGFKL” as the sequence, how does the “soluble on expression in E. coli” value read?
Answer: soluble

Question: Which “soluble on expression in E. coli” value does the source give for “MAEVLKKVDVVTVGAGWTGGIVAAELTKAGLNVLSLERGHMQSTENFNYIHDEWRYGINYGLMQDCSKDTVTFRHDPSGLALPYRKMGSFLLGNNVGGAGVHWNGWTFRFMPYDFEIQTLSKQRYGNKLGNDYTLQDWGVTYKDMEPYYDRFEKTCGVSGEPNPLAEKMGAFRSSPYPQEPLENTKMLKRFESAAKSSNLHTYRLPASNSKGGYTNPDGQDLAPCQYCAYCERFGCEYGAKASPLNTVIPKAMSTGKYTIRTYSNVTQILKKDGKVTGVKFVDTRTMKEYIQPADIVVLTSYMFNNAKLLMVSNIGEQYDPKTGKGTLGRNYCYQMNMGTTAFFDEQFNTFMGSGALGTTSDDFNGDNFDHSKEKFLHGAMIYSVQLGTRPIQSAPLPAGAPTWGAEFKKALNYNFTRAITVGGQGASLPHKNNYLSLDPTYKDAFGMPLLRLTYNFTDQDRALHKFITDKTAEVAKRMQGVKSIKKGAYLKDYSVVPYQSTHNTGGTTMGADRETSVVNTYLQHWDADNLFVVGAGNFQHNSGYNPTDTVGALAYRCAEGILKYHKSGKSLALEHHHHHH” here?
Answer: not soluble

Question: With “MAFANLRKVLISDSLDPCCRKILQDGGLQVVEKQNLSKEELIAELQDCEGLIVRSATKVTADVINAAEKLQVVGRAGTGVDNVDLEAATRKGILVMNTPNGNSLSAAELTCGMIMCLARQIPQATASMKDGKWERKKFMGTELNGKTLGILGLGRIGREVATRMQSFGMKTIGYDPIISPEVSASFGVQQLPLEEIWPLCDFITVHTPLLPSTTGLLNDNTFAQCKKGVRVVNCARGGIVDEGALLRALQSGQCAGAALDVFTEEPPRDRALVDHENVISCPHLGASTKEAQSRCGEEIAVQFVDMVKGKSLTGVVNAQALTSAFSPHTKPWIGLAEALGTLMRAWAGSPKGTIQVITQGTSLKNAGNCLSPAVIVGLLKEASKQADVNLVNAKLLVKEAGLNVTTSHSPAAPGEQGFGECLLAVALAGAPYQAVGLVQGTTPVLQGLNGAVFRPEVPLRRDLPLLLFRTQTSDPAMLPTMIGLLAEAGVRLLSYQTSLVSDGETWHVMGISSLLPSLEAWKQHVTEAFQFHF” as the sequence, how does the “soluble on expression in E. coli” value read?
Answer: soluble

Question: Which “soluble on expression in E. coli” value does the source give for “MAFDKKLLDIVACPVCKGKLEYDKVAQQLICKADKLAYPITDGIPVLLENRALPLTESV” here?
Answer: not soluble

Question: Which “soluble on expression in E. coli” value does the source give for “MAGAGHKEDKSVTKKLIKKESKSDITIYFKQREESEDNNANPINISRSSEKDRVIMLVNGSNGSKKNLASELNVRRSVAQTGAGGVTQPKPLLNDINTKSHAFIQSRLEKMRKGL” here?
Answer: not soluble

Question: Which “soluble on expression in E. coli” value does the source give for “MAGDPMGQKTQQDIVAGLDEKAKEYTSYKAKAKMTIETGSEPQVYNVEIWHKKPSLYRVYLENPKKDQNQVILRNENGVFVLTPSLNKSFRFQSDWPNNSSQVYLFESLVKDVQNDSDAVFTAKEKKYVFETKTNYQHNKMLPTQEITFNKKDMSPSSVKVMDTDRKVMVKVEFSSFEFNKQFDKESFDEKKNMTLSQMDVATSAKPSDTFAVKTPLELPLGVKLLEEKDISTEDGKRIIMTYGGEKSFTLIQEKAQIAKASSSVTLNGEPVNLGYTIGALSDASLSWTYDGVDYLLSSKDLSKEEMVTVAKSMQGQSSKLEHHHHHH” here?
Answer: soluble
